{"source": "paper PMC4287840", "key": {"angiopoietin-2 (Ang2) [1]": {"biological_target": "T1, angiopoietin-2 (Ang2) (human, UniProt O15123 19-496)", "T1 sequence (O15123 19-496)": "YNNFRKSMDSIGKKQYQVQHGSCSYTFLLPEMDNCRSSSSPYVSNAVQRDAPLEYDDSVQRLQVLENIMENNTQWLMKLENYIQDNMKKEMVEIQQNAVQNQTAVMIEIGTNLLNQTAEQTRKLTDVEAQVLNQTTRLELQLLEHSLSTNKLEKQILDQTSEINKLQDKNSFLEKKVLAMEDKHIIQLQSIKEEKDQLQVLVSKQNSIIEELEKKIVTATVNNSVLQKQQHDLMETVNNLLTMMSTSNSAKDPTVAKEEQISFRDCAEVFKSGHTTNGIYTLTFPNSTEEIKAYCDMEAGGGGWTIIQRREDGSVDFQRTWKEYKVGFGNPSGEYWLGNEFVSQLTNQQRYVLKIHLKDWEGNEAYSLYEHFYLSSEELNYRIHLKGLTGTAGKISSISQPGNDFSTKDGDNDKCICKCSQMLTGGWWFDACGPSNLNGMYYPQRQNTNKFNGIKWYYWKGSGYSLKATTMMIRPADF", "assay": "ELONA sandwich"}, "angiopoietin-2 (Ang2) [2]": {"biological_target": "T1, angiopoietin-2 (Ang2)", "assay": "bead-based fluorescence assay"}, "angiopoietin-2 (Ang2) [3]": {"biological_target": "T1, angiopoietin-2 (Ang2)", "assay": "bead-based fluorescence assay", "remark": "listed apart in the source"}, "angiopoietin-2 (Ang2) [4]": {"biological_target": "T1, angiopoietin-2 (Ang2)", "assay": "bead-based fluorescence assay", "remark": "listed apart in the source"}}, "data": [{"binder": "TTTGGGGTGGTTGGGGGTTGTTGTTTTGGGGGTGGAGGGT (ssDNA)", "note": "[ABA65]", "values": [{"measurement": "binding result", "setting": "angiopoietin-2 (Ang2) [1]", "value": "binds"}]}, {"binder": "ACTTGTAGGGTTCGGCTGGTCAGGGTGTCCAAGTCTGTGG (ssDNA)", "note": "[ABA1]", "values": [{"measurement": "binding signal", "setting": "angiopoietin-2 (Ang2) [2]", "value": "~210 fold higher Kd than ABA1-ABA65 (97 pM)"}]}, {"binder": "GGGTGCCATTGGGGACTGCTCGGGATTGCGGACTTGGCAT (ssDNA)", "note": "[ABA109]", "values": [{"measurement": "binding result", "setting": "angiopoietin-2 (Ang2) [3]", "value": "binds"}]}, {"binder": "GGTGCCATTGGGGACTGCTCGGGATTGCGGACTTGGCATC (ssDNA)", "note": "[ABA92]", "values": [{"measurement": "binding result", "setting": "angiopoietin-2 (Ang2) [3]", "value": "binds"}]}, {"binder": "TTTTTTTTTTTTTTTTTTTTTTTTT (ssDNA)", "note": "[25T linker]", "values": [{"measurement": "Kd", "setting": "angiopoietin-2 (Ang2) [4]", "value": "210 ± 49.4", "unit": "nM"}]}]}
